For assay [1], the target named is T1, extracellular region of human V158 FcγRIIIa with C-terminal 6x His-tag and GST-tag (human, UniProt P08637 17-208).
T1 construct: extracellular domain; on glutathione acceptor beads (AlphaScreen) or immobilized on the SPR chip; also called Val158 FcγRIIIa; V158 FcγRllla; not shown: 6x His-tag; GST-tag
As to the kind of experiment: SPR; fold affinity vs WT. Background: Surface plasmon resonance follows binding to a sensor surface in real time, without labels.

In assay [2] the target is T1, extracellular region of human V158 …. The assay can be described thus: AlphaScreen competition; fold affinity vs WT. (In general: Alpha assays give light when donor and acceptor beads are brought close together.)
The target is the same in assay [3]. As to the kind of experiment: SPR; receptor immobilized, antibody flowed.
For assay [4] the target is unchanged. The assay can be described thus: only one value in the row.
The target is the same in assay [5]. The assay can be described thus: SPR; fold affinity vs WT (read as two values, 1 and 1.86; could be 11.86).
For assay [6] the target is unchanged. The assay can be described thus: AlphaScreen competition; fold affinity vs WT (read as two values, 1 and 1.86; could be 11.86).

B1: E258Y alemtuzumab (antibody)
chain 1: not shown
chain 2: not shown
For B1, the “Fold WT (SPR)” value in assay [1] amounted to 1.77 fold. In addition, the “Fold WT (AlphaScreen)” value in assay [2] was 0.64 fold.

B2: WT alemtuzumab (antibody)
chain 1: not shown
chain 2: not shown
B2: binding in assay [3] was put at a Kd of 68 nM.

B3: V284E alemtuzumab (antibody)
chain 1: not shown
chain 2: not shown
For the molecule B3, the “Fold WT (AlphaScreen or SPR)” value in assay [4] came out at 1.51 fold.

B4: T260H alemtuzumab (antibody)
chain 1: not shown
chain 2: not shown
On to B4, for which the “Fold WT (SPR)” value in assay [5] came to 1.86 fold. The “Fold WT (AlphaScreen)” value in assay [6] was 1 fold.

B5: E283H alemtuzumab (antibody)
chain 1: not shown
chain 2: not shown
Regarding B5, the “Fold WT (AlphaScreen or SPR)” value in assay [4] was 2.31 fold.

B6: E272R alemtuzumab (antibody)
chain 1: not shown
chain 2: not shown
Turning to B6, the “Fold WT (AlphaScreen or SPR)” value in assay [4] was 1.38 fold.

B7: S304T alemtuzumab (antibody)
chain 1: not shown
chain 2: not shown
For B7, the “Fold WT (AlphaScreen or SPR)” value in assay [4] amounted to 12.8 fold.

As a reminder, the Kd is the equilibrium constant for the complex coming apart. The low end stands for a tighter complex, the high end for a looser complex.

The record behind these values is patent WO2006085967A2 (dated 2006).
